Km data for three substances are collected here from PMC3361975.

The series concerns NC(=O)c1ccc[n+]([C@@H]2O[C@H](COP(=O)(O)OP(=O)(O)OC[C@H]3O[C@@H](n4cnc5c(N)ncnc54)[C@H](O)[C@@H]3O)[C@@H](O)[C@H]2O)c1. Nature of the series: purified protein. To be noted: phosphite and NAD+ varied, 100 mM MOPS pH 7.25, 25 °C.
As for “17X-PTDH (Stutzerimonas stutzeri; A319E/A325V/C336D/D13E/E130K/E175A/E332N/I150F/I313L/L276Q/M26I/Q132R/Q137R/Q215L/R275Q/R301K/V315A/V71I)”, the Km was 0.074 (0.007) mM.
Next, “17X-PTDH (Stutzerimonas stutzeri; A319E/A325V/C336D/D13E/E130K/E175A/E332N/I150F/I313L/L276Q/M26I/Q132R/Q137R/Q215L/R275Q/R301A/V315A/V71I)”: 0.216 (0.015) mM; “17X-PTDH (Stutzerimonas stutzeri; A319E/A325V/C336D/D13E/E130K/E175A/E332N/I150F/I313L/L276Q/M26I/Q132R/Q137R/Q215L/R275Q/V315A/V71I)”: 0.022 (0.006) mM.
